The record followed here is US20120214208.

Data set [1] deals with ligase-PprA (phage T4 / Deinococcus radiodurans fusion). Conditions: transformation assay; no-ligase control 4.
Data set [2] deals with p50-ligase (NF-kappaB p50 40-366 fused to N-terminus of T4 DNA ligase) (Homo sapiens / phage T4 fusion). Particulars: transformation assay; no-ligase control 4.
A further data set relates to T4 DNA ligase (phage T4). Conditions: transformation assay after 16 C 60 min; no-ligase control 4.

As to “pCA24N-ompC HindIII/SpeI vector (5032 bp) and insert (1311 bp)”, the activity was found to be 53 colonies in data set [1], 17 colonies in data set [2] and 47 colonies in the data set with T4 DNA ligase (phage T4).
